Substitutions are numbered along the chain they refer to. Where no end group is shown, it is not given here. [ ]: non-standard residue; d: D form. pY = N[C@@H](Cc1ccc(OP(=O)(O)O)cc1)C(=O)O

The target of assay [1] is T1, HLA DPB1*04:01 (human).
T1 chain 1: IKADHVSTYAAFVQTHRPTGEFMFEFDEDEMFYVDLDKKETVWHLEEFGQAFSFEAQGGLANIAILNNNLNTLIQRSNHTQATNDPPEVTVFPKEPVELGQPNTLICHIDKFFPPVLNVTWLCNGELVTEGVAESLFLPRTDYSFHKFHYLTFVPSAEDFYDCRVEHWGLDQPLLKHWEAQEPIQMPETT
T1 chain 2: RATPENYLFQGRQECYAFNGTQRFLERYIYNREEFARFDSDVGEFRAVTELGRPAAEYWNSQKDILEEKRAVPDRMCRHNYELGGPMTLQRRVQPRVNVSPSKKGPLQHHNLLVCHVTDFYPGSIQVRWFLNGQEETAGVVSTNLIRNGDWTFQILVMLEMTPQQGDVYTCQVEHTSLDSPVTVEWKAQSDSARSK
Nature of the assay: competition with radiolabeled peptide, purified HLA.

For assay [2], the target named is T2, HLA DPB1*04:02 (human).
T2 construct: purified HLA class II molecule; only the beta-chain allele is printed
Described as above.

Assay [3] concerns the target T3, HLA DPB1*02:01 (human).
T3 chain 1: T1 chain 1
T3 chain 2: T1 chain 2 with A36V, A55D, A56E, K69E
The assay is described as above.

The target of assay [4] is T4, HLA DPB1*05:01 (human).
T4 construct: purified HLA class II molecule; only the beta-chain allele is printed
The description is as above.

In assay [5] the target is T5, HLA A*11:01 (human).
T5 construct: purified HLA A*11:01 molecules
Nature of the assay: competition with radiolabeled peptide, purified HLA A*11:01.

Assay [6] deals with T6, HLA DRB3*01:01 (human).
T6 construct: purified HLA class II molecule; only the beta-chain allele is printed
Nature of the assay: competition with radiolabeled peptide, purified HLA.

The target of assay [7] is T7, HLA DQB1*05:01 (human).
T7 construct: purified HLA class II molecule; only the beta-chain allele is printed
The assay is described as above.

The target in assay [8] is T8, HLA DQB1*04:02 (human).
T8 construct: purified HLA class II molecule; only the beta-chain allele is printed
The assay is described as above.

Assay [9] has as its target T9, HLA DRB1*04:01 (human).
T9 construct: purified HLA class II molecule; only the beta-chain allele is printed
Described as above.

B1: alpha-syn peptide aa32KTKEGVLYVGSKTKEaa46 phosphorylated at Y39 (peptide)
peptide: KTKEGVL[pY]VGSKTKE
notes: synthetic post-translationally modified 15-mer; also called Phospho-Y
As to B1, the IC50 came to 937 nM in assay [1], 1600 nM in [2], 620 nM in assay [3] and 777 nM in assay [4].

VLYVGSKTK (synthetic 9-mer; also called the 9 mer) [alpha-syn peptide aa37VLYVGSKTKaa45] came in with an IC50 in [5] of 161 nM.

As to DNEAYEMPSEEGYQD (synthetic 15-mer of alpha-synuclein) [alpha-syn peptide aa121DNEAYEMPSEEGYQDaa135], the IC50 in assay [6] turned out to be 787 nM; in [7] it was 7 nM; in assay [8], 51 nM; in [9] it was 76 nM.

As usually defined, the IC50 is the concentration that gives 50% inhibition.

These data come from patent US20200095296A1 (TRUSTEES OF COLUMBIA UNIVERSITY IN THE CITY OF NEW YORK, published 2020).
